Patent US20260049134A1 (UNIVERSITY OF FLORIDA RESEARCH FOUNDATION, published 2026)
Changes are numbered by the printed parent chain. In names and notes the source's numbering stands.

T1: IL13RA1
T1 construct: coated protein in the ELISA; also called IL13RA1-Fc-His (R&D Systems)
T1 chain: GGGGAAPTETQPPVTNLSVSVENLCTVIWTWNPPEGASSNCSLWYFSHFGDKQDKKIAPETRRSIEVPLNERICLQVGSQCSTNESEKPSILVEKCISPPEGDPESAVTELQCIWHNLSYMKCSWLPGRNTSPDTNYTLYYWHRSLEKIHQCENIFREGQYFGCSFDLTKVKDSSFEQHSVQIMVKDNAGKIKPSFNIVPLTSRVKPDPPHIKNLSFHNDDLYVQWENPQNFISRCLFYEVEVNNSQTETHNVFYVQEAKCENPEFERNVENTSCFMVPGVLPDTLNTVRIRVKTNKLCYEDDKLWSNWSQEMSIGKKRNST

T2: CADM1-His (Acro Biosystems) (human, UniProt Q9BY67 45-374)
T2 construct: Bought; also called CADM1/IGSF4A; not shown: His tag of the bought protein
T2 sequence: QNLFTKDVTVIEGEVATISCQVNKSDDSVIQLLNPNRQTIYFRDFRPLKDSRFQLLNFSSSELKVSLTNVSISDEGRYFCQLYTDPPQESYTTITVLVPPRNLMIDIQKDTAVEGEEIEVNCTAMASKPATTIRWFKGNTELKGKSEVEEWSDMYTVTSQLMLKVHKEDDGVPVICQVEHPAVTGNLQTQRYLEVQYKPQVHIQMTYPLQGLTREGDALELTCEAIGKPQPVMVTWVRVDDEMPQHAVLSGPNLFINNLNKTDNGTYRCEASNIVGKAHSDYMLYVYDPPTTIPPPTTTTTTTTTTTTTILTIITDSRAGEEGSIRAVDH

T3: GARS-His (Sino Biological) (human, UniProt P41250 37-739, limits assumed)
T3 construct: Bought; also called GARS1; glycyl-tRNA synthetase; not shown: His tag of the bought protein
T3 sequence: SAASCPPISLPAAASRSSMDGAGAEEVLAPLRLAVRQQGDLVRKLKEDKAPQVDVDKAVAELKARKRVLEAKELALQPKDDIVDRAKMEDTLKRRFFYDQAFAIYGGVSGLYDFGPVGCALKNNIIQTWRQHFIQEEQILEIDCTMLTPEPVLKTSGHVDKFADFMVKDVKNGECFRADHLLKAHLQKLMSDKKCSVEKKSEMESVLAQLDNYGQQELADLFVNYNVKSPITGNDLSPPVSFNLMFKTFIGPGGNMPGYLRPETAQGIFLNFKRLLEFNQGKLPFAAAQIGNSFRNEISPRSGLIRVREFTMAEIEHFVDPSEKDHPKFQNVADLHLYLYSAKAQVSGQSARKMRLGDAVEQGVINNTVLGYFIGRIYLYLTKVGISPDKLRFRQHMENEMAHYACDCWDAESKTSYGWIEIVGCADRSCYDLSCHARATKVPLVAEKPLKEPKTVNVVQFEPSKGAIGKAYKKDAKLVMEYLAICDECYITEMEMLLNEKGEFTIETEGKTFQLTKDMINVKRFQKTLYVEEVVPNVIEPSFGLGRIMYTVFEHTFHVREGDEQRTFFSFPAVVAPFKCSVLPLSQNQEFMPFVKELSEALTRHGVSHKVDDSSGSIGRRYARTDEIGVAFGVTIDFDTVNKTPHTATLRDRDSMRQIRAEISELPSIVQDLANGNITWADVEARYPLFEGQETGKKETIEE

T4: IGSF11 (VSIG3)
T4 construct: coated protein in the ELISA; also called IGSF11-Fc (R&D Systems)
T4 chain: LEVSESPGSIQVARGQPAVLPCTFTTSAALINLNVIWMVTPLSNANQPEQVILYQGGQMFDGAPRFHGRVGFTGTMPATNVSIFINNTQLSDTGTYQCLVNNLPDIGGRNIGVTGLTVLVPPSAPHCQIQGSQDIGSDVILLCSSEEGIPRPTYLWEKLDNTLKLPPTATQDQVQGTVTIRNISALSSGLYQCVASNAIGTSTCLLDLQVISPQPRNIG

B1: HW-97 chimeric rabbit-human IgG1 LA/LA/PG (antibody, V domains shown)
VH: QKQLVESGGRLVTPGTPLTLTCTVTGIDLSSHGMSWVRQAPGKGLEWIGVIYPSGSTWYASWARGRFTISKTSTTVDLKMTSLTTEDTATHFCARGDVGGADNNIWGPGTLVTVSS
VL: SFVLTQPASVQVDLGQTVSLTCTAETLSRSYASWYQQKPGQAPVLLIYRDTSRPSGVPDRFSGSSSGNTATLTISGAQAGDEADYYCATSDGSGSSYQYVFGGGTQLTVTG
notes: Fc-silenced (L234A/L235A/P329G) IgG1, lambda; Alexa Fluor 647-labeled in single-step flow cytometry; Prototype of cluster C-97
B2: HW-113 chimeric rabbit-human IgG1 LA/LA/PG (antibody, V domains shown)
VH: QKQLVESGGGLVQPGGSLTLTCTVSGFSLNKYYMGWFRQAPGKGLEWIGVISRSGDTYYSSWAKGRFTISKASTTVDLRITSPTTEDTATYFCARDASSPGFHGDRLDLWGQGTLVTVSS
VL: B1 VL with D13N, E25D, S93I, S96N, Q98L, Y99W
notes: Fc-silenced (L234A/L235A/P329G) IgG1, lambda; Alexa Fluor 647-labeled in single-step flow cytometry
B3: HW-101 chimeric rabbit-human IgG1 LA/LA/PG (antibody, V domains shown)
VH: QEQLVESGGRLVTPGTPLTLTCKASGFSLGKYDMSWVRQAPGKGLEWIGTIYAGSGSTWYASWAKGRFTISKTSTTVDLKMTSLTTEDTATYFCARDFLGVNSIWGPGTLVTISS
VL: B1 VL with D13N, E25D, G40D, Y48H, S65N, S96N, Y97F, Q98H, Y99F
notes: Fc-silenced (L234A/L235A/P329G) IgG1, lambda; Alexa Fluor 647-labeled in single-step flow cytometry; Cluster C-97
B4: HW-16 chimeric rabbit-human IgG1 LA/LA/PG (antibody, V domains shown)
VH: QSLEESGGRLVTPGTPLTLTCTASGFSLSSYAMSWVRQAPGKGLEWIGTMPTGGGTYYASWAKGRFTISKTSTTVDLQITSPTTEDTATYFCAKHWNIWGPGTLVTISS
VL: DIVLTQTPSSTSTAVGDTVTINCRASQSIGRNLAWFQQKPGQPPKLLIYRASNLASGVPSRFKGSGSRTQFTLTISGVQREDAATYYCLGSYSSSDTAFGGGTELEILR
notes: Fc-silenced (L234A/L235A/P329G) IgG1, kappa; Alexa Fluor 647-labeled in single-step flow cytometry; Cluster C-45

The binders below were run against T5, APP (assay: ELISA on coated APP-His, 150 ng IgG1; None 0.092).
T5 construct: His-tagged; coated protein in the ELISA; also called APP-His (Acro Biosystems)
Procedure: (§1) Recombinant purified ECDs (50-150 ng) of each putative target protein were coated, incubated with 150 ng of the indicated primary antibody, and binding was detected using a peroxidase-conjugated anti-human Fab secondary antibody. Heatmap represents averages of technical triplicates. (8B) Target validation via siRNA knockdown. H929 cells were transfected with siRNA pools targeting the putative antibody targets ICAM1, CADM1, and PTPRG. Cells were then subjected to cognate IgG binding analysis via flow cytometry. (NT, non-targeting siRNA).
(§2) ELISA ELISA was conducted as described previously. Briefly, 50-150 ng of antigen was coated overnight in half-area 96-well plates at 4° C., blocked with 3% BSA at 37° C. for 1 h, and 150 ng of chimeric rabbit/human IgG1 was added, incubating for 2 h at 37° C. […] After incubating at 37° C. for 15 min-1 h (depending on intensity of controls), data were acquired using a SpectraMax M5 plate reader (Molecular Devices).

| ELISA Absorbance (405 nm-570 nm) | Binder |
| --- | --- |
| 0.067 | B1 |
| 0.074 | B2 |
| 0.061 | B3 |
| 0.225 | B4 |

Biological target: T1, IL13RA1
Assay: ELISA on coated IL13RA1-Fc-His, 150 ng IgG1; None 0.094
Procedure: as §1, §2

| ELISA Absorbance (405 nm-570 nm) | Binder |
| --- | --- |
| 0.08 | B1 |
| 0.086 | B2 |
| 0.067 | B3 |
| 0.163 | B4 |

What follows are binders tested against T2, CADM1-His (Acro Biosystems) (assay: ELISA on coated CADM1-His, 150 ng IgG1; None 0.059).
Procedure: as §1, §2

| ELISA Absorbance (405 nm-570 nm) | Binder |
| --- | --- |
| 0.679 | B1 |
| 0.058 | B2 |
| 0.525 | B3 |
| 0.067 | B4 |

These binders were tested against T3, GARS-His (Sino Biological) (assay: ELISA on coated GARS-His, 150 ng IgG1; None 0.099).
Procedure: as §1, §2

| ELISA Absorbance (405 nm-570 nm) | Binder |
| --- | --- |
| 0.079 | B1 |
| 0.088 | B2 |
| 0.093 | B3 |
| 0.718 | B4 |

Biological target: T4, IGSF11 (VSIG3)
Assay: ELISA on coated IGSF11-Fc
Procedure: as §1, §2

| Binder | binding result |
| --- | --- |
| B1 | no binding (tested: 150 ng IgG1 per well) |
| B2 | no binding (tested: 150 ng IgG1 per well) |
| B3 | no binding (tested: 150 ng IgG1 per well) |
| B4 | no binding (tested: 150 ng IgG1 per well) |
